Patent US20220064310A1 (DEVELOPMENT CENTER FOR BIOTECHNOLOGY, published 2022)

Experiments:
[1] = target: T1, human CSF-1R extracellular domain (CSF-1R-ECD) (human, UniProt P07333 20-512); assay: SPR BIAcore T200, AB21 amine-coupled, CSF-1R-ECD 0.3125-40 nM as analyte, 25 C
Description: (§1) To know the biding kinetics difference among individual antibodies, surface plasmon resonance (SPR) measurement with a BIAcore T200 (BIAcore, Inc., Piscataway, N.J.) was used as previously described (Karlsson & Fait, (1997) J. Immunol Methods 200:121-133). Carboxymethylated dextran biosensor chips (CMS, BIAcore Inc.) were activated with N-ethyl-N′-(3-dimethyl aminopropyl)-carbodiimide hydrochloride (EDC) and N-hydroxy succinimide (NHS) according to the supplier's instructions. AB21 mAb was diluted with 10 mM sodium acetate, pH 4.8, into 5 microgram/ml before injection at a flow rate of 20 micro L/minute to achieve approximately 100 response units (RU) of coupled protein followed by the injection of 1M ethanolamine to block unreacted groups. For kinetics measurements, two-fold serial dilutions of CSF-1R-ECD (0.3125 nM to 40 nM) were injected in HBS-P BIAcore running buffer provided by the manufacturer (BIAcore, Inc., Piscataway, N.J.) at 25° C. at a flow rate of 30 μL/min, and binding responses on the AB21 mAb were corrected by subtraction of responses on a blank flow cell. Association rates (kon or ka) and dissociation rates (koff or kd) were calculated using a simple one-to-one Langmuir binding model with separate fittings of kon and koff was used. (BIAcore™ Evaluation Software version 3.2).

[2] = target: T2, mouse CSF-1R (mouse, UniProt P09581 20-511, limits assumed); assay: not described
T2 sequence (looked up): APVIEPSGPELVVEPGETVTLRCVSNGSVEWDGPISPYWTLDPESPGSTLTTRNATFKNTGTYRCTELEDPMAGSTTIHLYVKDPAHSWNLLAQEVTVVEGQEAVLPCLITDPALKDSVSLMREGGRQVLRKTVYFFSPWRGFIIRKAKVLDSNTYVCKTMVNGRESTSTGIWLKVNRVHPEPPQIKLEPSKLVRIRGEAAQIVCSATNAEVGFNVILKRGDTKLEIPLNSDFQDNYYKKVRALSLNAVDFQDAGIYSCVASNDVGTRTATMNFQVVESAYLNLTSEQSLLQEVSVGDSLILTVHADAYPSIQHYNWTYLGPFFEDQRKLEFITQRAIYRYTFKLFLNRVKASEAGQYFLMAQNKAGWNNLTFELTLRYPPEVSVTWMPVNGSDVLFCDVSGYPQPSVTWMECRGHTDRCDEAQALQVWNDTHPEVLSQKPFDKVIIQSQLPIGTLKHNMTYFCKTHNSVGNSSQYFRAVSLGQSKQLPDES

[3] = target: T3, human CSF-1R-Fc protein (M-CSF R/CD115 Fc chimera, R&D Systems) (human, UniProt P07333 20-512); assay: ELISA, coated M-CSF R/CD115 Fc chimera (R&D), AB21 titrated, goat anti-mouse IgG-HRP, Abs450
T3 construct: Fc part of the bought chimera not given
Protocol: (§2) After binding and washing, the bound mAb AB21 was assessed using a horseradish peroxidase conjugated secondary antibody.
(§3) One hundred (100) ng of human CSF-1R-Fc protein was coated on a 96-well ELISA plate, and the plate was further washed with PBS. Serial dilutions from 1×10⁻¹² to 1×10⁻⁸ M of AB21 mAb antibody were added to the plate, and the plate was incubated at 37° C. for 1 hour. A goat anti-mouse IgG conjugated with horseradish peroxidase (HRP) was added. After 1 hour, 3,3′,5,5′-Tetramethylbenzidine (TMB) was added and OD450 was read. Every study was repeated three times. Data were presented as mean SD. OD readings and concentrations of antibodies were used to make a multiple scatter plot using GraphPad Prism 5. The values were predicted by four parameter logistic fit.

[4] = target: T3, human CSF-1R-Fc protein (M-CSF R/CD115 …); assay: ELISA, 100 ng human CSF-1R-Fc coated, four parameter logistic fit
Protocol: as §2, §3

[5] = target: T1, human CSF-1R extracellular domain …; assay: Biacore T200 SPR, AB21 amine-coupled on the chip, CSF-1R-ECD injected at 0.3125 to 40 nM, 1:1 Langmuir fit
Description: as §1

[6] = target: T4, CSF-1R ECD variant 228-233A (human, UniProt P07333 20-512); assay: ELISA, coated CSF-1R ECD variant 228-233A, AB21 titrated, Abs450
T4 chain: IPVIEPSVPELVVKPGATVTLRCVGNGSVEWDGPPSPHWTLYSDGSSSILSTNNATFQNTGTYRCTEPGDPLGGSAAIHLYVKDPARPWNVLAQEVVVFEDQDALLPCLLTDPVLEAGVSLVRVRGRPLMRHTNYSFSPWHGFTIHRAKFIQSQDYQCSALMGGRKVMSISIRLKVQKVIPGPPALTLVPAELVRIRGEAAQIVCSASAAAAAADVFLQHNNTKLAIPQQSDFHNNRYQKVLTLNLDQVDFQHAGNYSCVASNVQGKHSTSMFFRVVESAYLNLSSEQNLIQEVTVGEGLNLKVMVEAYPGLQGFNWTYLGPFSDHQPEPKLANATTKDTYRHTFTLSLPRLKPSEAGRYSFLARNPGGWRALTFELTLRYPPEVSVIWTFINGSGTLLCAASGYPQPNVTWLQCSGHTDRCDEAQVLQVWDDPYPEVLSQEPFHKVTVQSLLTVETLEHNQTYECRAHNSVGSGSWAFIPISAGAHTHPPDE
Protocol: as §3
To determine the binding epitopes of anti-CSF-1R antibody AB21, different CSF-1R extracellular domain variants that certain residues were replaced with alanine were constructed. […] After the variant proteins were purified, the binding affinity of AB21 mAb to these CSF-1R-ECD variants were analyzed by ELISA with the process described in Example 1.

[7] = target: T5, CSF-1R-ECD-human Fc (in house) (human, UniProt P07333 20-512); assay: blocking ELISA: coated CSF-1R-ECD-human Fc, AB21 titrated together with M-CSF, bound CSF-1 detected with biotinylated anti-CSF-1 BAF216 and streptavidin-HRP, Abs450
T5 construct: In-house fusion; also called CSF-1R-ECD-hFc; CSF1R-ECD-hFc; not shown: human Fc
Protocol: CSF-1R-ECD-human Fe (in house) is diluted to 1.2 μg/ml with coating buffer and coating overnight at 4° C. After incubation step, plates were washed 1 time with the wash buffer and blocking with 1% casein blocking buffer at room temperature for 2 hours. Different dilutions of purified AB21 antibodies were incubated with 250 ng/ml of M-CSF (R&D system, 216-GMP-025) in dilution buffer at 37° C. for 1 hour. After 5 times of wash, the ligand which bound to the receptor can be detected by 50 ng/ml biotinylated […] clone BAF216 (R&D Systems, UK) and 1:5000 diluted streptavidin HRP (Roche Diagnostics GmbH, DE, Cat. No. 11089153001) after 1 hour incubation. Anti CSF-1R SC 2-4A5 (Santa Cruz Biotechnology, US), which inhibits the ligand-receptor interaction, was used as positive control. Plates were developed with TMB Microwell Peroxidase Substrate (KPL, 95059-154). Absorbance was measured at 450 nm. A decrease of absorbance is found, if the anti-CST-1R antibody causes a release of CSF-1 from the dimeric complex. […] Therefore, antibodies of the invention can be used to prevent or treat diseases mediated by CSF-1R or CSF-1.

[8] = target: T6, human CSF-1R on the cell surface (THP-1 cells, endogenous); Ba/F3 cells stably expressing full-length human … (human, UniProt P07333 20-972); assay: flow cytometry on THP-1 cells, FITC anti-mouse secondary antibody, readout CD115+ of single cells (%)
T6 construct: whole, on cells; also called Ba/F3-CSF-1R; Ba/F3-hCSF-1R
Protocol: In addition to binding CSF-1R ECD in vitro, antibodies of the invention can also bind CSF-1R on cells. In this example, THP-1 cells (human monocytic cell line, ATCC® TIB-202™) were stained in different concentrations of antibodies (AB21) from 6 to 0.625 μg/ml. After washing, cells were stained with secondary antibody FITC anti-mouse (1:500 dilution). Cells were fixed with a fixation buffer (FluroFix™ buffer, Biolegend) and analyzed with LSRFortessa FACS analyzer (Becton Dickson, US). […] The dose-dependent binding fits a sigmoid curve in the semi-log plot, indicating binding to a specific site (i.e., the antibody binds specifically to the target on the THP-1 cells).

Kd [1]: 0.123 nM | binding result [2]: no binding | EC50 [3]: 0.745 nM | Kd [4]: 0.745 nM | koff [5]: 4.9e-05 s⁻¹ | kon [5]: 399000 M⁻¹ s⁻¹ | IC50 (read off the curve) [7]: ~2 nM | EC50 [8]: 0.374 nM
B1: mouse hybridoma anti-human CSF-1R antibody mAb AB21 (antibody, V domains shown)
VH: EVQLQQSGPELEKPGASVKISCKASGYSFTGYNMNWVKQSNGKSLEWIGNIDPYYGGTTYNQKFKGKATLTVDKSSSTAYMQLKSLTSEDSAVYYCARRGDYSGSSYWYFDVWGAGTTVTVSS
VL: DIQMTQSSSYLSVSLGGRVTITCKASDHINNWLAWYQQKPGNAPRLLISGATSLETGVPSRFSGSGSGKDYTLSITSLQTEDVVTYYCQQYWSTPFTFGSGTKLEIK
notes: Mouse monoclonal antibody purified from hybridoma ascites (Protein A); also called AB21 mAb; mAb 21
binding result [6]: no binding (tested: about 3e-8 M (log -7.5 on the axis))
